In patent US20230383007A1 (BIOSION, published 2023):

T1: human TROP2-his protein (human, UniProt P09758 27-274)
T1 construct: also called biotin labeled human TROP2-his protein
T1 sequence: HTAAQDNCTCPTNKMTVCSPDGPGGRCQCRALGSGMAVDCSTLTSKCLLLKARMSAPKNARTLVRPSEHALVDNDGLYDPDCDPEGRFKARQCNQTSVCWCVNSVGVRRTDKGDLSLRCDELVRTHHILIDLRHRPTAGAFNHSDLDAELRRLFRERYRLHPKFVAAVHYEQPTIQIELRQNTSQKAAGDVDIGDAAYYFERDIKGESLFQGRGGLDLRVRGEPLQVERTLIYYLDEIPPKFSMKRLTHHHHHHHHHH

T2: full length human TROP2 on 293F-TROP2 cells (clone ID #3A8) (human, UniProt P09758 27-323)
T2 sequence: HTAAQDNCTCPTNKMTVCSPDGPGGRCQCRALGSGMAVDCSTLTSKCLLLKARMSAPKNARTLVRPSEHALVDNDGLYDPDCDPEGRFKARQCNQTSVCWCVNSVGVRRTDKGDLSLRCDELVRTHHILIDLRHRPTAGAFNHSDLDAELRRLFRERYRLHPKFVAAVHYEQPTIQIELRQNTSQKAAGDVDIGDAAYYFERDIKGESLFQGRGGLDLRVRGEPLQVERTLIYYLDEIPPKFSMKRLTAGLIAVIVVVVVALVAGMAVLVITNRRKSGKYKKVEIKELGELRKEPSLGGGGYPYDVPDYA


Columns and labels:
human TROP2-his protein [1] = molecular target: T1, human TROP2-his protein; assay: capture ELISA: antibody captured on anti-human IgG Fc coated plate, biotin labeled human TROP2-his detected with streptavidin-HRP; unit taken from the x axis (nM)
Protocol: For the capture ELISA, 96-well plates were coated with 100 μl 2 μg/ml AffiniPure F(ab′)₂ Fragment GoatAnti-Human IgG, Fey fragment specific (Jackson Immuno Research, Cat #109-006-008) in PBS overnight at 4° C. Plates were washed once with wash buffer (PBS+0.05% v/v Tween-20, PBST) and then blocked with 200 μl/well blocking buffer (5% w/v non-fatty milk in PBST) for 2 hours at 37° C. Plates were washed 4 times and respectively incubated with 100 μl serially diluted anti-TROP2 antibodies of the disclosure, the benchmark or negative control hIgG (human immunoglobulin (pH4) for intravenous injection, Hualan Biological Engineering Inc.) (5-fold dilution in 2.5% w/v non-fatty milk in PBST, starting at 66.7 nM) for 40 minutes at 37° C., and then washed 4 times again. […] The reaction was stopped in 3-10 minutes at room temperature with 50 μl/well 1M H₂SO₄, and the absorbance of each well was read on a microplate reader using dual wavelength mode with 450 nm for TMB and 630 nm as the reference wavelength. […] Data was analyzed using Graphpad Prism software and EC₅₀ values were reported.

[2] = molecular target: T2, full length human TROP2 on 293F-TROP2 …; assay: cell based binding FACS (MFI) on 293F-TROP2 cells expressing human TROP2; unit taken from the x axis (nM)
Protocol: Cells were washed twice with FACS buffer, and added with 100 μL/well R-Phycoerythrin AffiniPure Goat Anti-Human IgG, Fey fragment specific (1:1000 dilution in FACS buffer, Jackson Immunoresearch, Cat #109-115-098). Following an incubation of 40 minutes at 4° C. in dark, cells were washed twice and re-suspended in FACS buffer. Fluorescence was measured using a Becton Dickinson FACS Canto II-HTS equipment, and the MFI (mean fluorescence intensity) was plotted against antibody concentration. Data was analyzed using Graphpad Prism software and EC₅₀ values were reported.

human TROP2-his protein [3] = molecular target: T1, human TROP2-his protein; assay: indirect ELISA, plate coated with human TROP2-his; unit taken from the x axis (Con of mAb, ng/mL)
Protocol: The single domain antibodies of the disclosure were tested in the indirect ELISA for their cross-reaction with cynomolgus TROP2 protein. Briefly, 96-well micro plates were coated with 100 μl 2 μg/ml human TROP2-his protein (prepared in-house with SEQ ID NO: 16) in carbonate/bicarbonate buffer (pH 9.6) overnight at 4° C. ELISA plates were washed once with wash buffer (PBS+0.05% v/v Tween-20, PBST) and then blocked with 200 μl/well blocking buffer (5% w/v non-fatty milk in PBST) for 2 hours at 37° C. Plates were washed 4 times and incubated with 100 μl/well serially diluted anti-TROP2 antibodies of the disclosure or controls (starting at 66.7 nM, 5-fold serial dilution in 2.5% w/v non-fatty milk in PBST) for 40 minutes at 37° C. ELISA plates were washed 4 times again and incubated with Peroxidase AffiniPure F(ab′)₂ Fragment Goat Anti-Human IgG, Fey fragment specific (Jackson Immuno Research, Cat #109-036-098, 1:5000 dilution in PBST buffer, 100 μl/well) for 40 minutes at 37° C. After a final wash, plates were incubated with 100 μl/well TMB (Innoreagents) at room temperature. The reaction was stopped 3-10 minutes later at room temperature with 50 μl/well 1M H₂SO₄, and the absorbance of each well was read on a microplate reader using dual wavelength mode with 450 nm for TMB and 630 nm as the reference wavelength. The OD (450-630) values were plotted against antibody concentration. Data was analyzed using Graphpad Prism software and EC₅₀ values were reported.

| Binder | EC50 (human TROP2-his protein [1]) [nM] | EC50 [2] [nM] | EC50 (human TROP2-his protein [3]) [mg/L] |
| --- | --- | --- | --- |
| single domain antibody 01-9F (VHH) VHH: QVQLVESGGGSVQAGGSLRLSCVVSGLPYERYCVAWFRQGPGKEREGVARILSDGTTSYSDSVKGRFTISKDNAKNTLYLQMNSLKSEDTATYYCAAEAFRPFTPSDGDCTTVLGIDYWGKGTPVTVSS | 0.164 | 0.53 | 0.0208 |
| sacituzumab (benchmark, an analog of sacituzumab, in house made) (antibody, human IgG1, kappa, V domains shown, also called BM; BM1) VH: SVQLQQSGSELKKPGASVKVSCKASGYTFTNYGMNWVKQAPGQGLKWMGWINTYTGEPTYTDDFKGRFAFSLDTSVSTAYLQISSLKADDTAVYFCARGGFGSSYWYFDVWGQGSLVTVSS VL: DIQLTQSPSSLSASVGDRVSITCKASQDVSIAVAWYQQKPGKAPKLLIYSASYRYTGVPDRFSGSGSGTDFTLTISSLQPEDFAVYYCQQHYITPLTFGAGTKVEIKR | 0.269 | 0.706 | 0.0374 |
